Molecular target: α-Methylacyl-CoA racemase from Mycobacterium tuberculosis, wild-type (M. tuberculosis) (UniProt O06543)
Assay: SEC

With “α-Methylacyl-CoA racemase from Mycobacterium tuberculosis, wild-type (from UniProt O06543 1-360) (enzyme)” the stoichiometry N was 2.

From paper PMC10967716
